According to publication PMC8479475:

Columns and labels:
[1] = biological target: Labeled bovine β-cardiac heavy meromyosin (HMM) carrying EDANS- and dabcyl-labeled regulatory light chain (bovine) (UniProt P85100); assay: FRET or BRET; time-resolved FRET as in a2 with mavacamten (dose-response) and 2 mM magnesium ATP, incubated 10 min; 5 μM labeled HMM; head-head interaction within the molecule
[2] = biological target: Labeled bovine β-cardiac heavy meromyosin (HMM) carrying EDANS- and dabcyl-labeled regulatory light chain (bovine) (UniProt P85100); assay: FRET or BRET; time-resolved FRET between EDANS- and dabcyl-labeled RLC (1:3) on the two heads of one HMM dimer; head-head interaction within the molecule (interacting-heads motif), not between HMM molecules; in solution, no cross-linker
[3] = biological target: Labeled bovine β-cardiac heavy meromyosin (HMM) carrying EDANS- and dabcyl-labeled regulatory light chain (bovine) (UniProt P85100); assay: FRET or BRET + cross-linking; time-resolved FRET as in a2 after cross-linking: 5 μM HMM in 10 mM MOPS, 30 mM KCl, 2 mM MgATP, 1 mM DTT, pH 7.5, 0.1% glutaraldehyde for 1 min, quenched with 100 mM Tris pH 7.5; head-head interaction within the molecule

increase in the population participating in FRET with mavacamten (head-head interaction within the dimer) [1]: 4%
percent of molecules in the interacting-heads motif (head-head interaction within the dimer) [2]: 43%
fraction participating in FRET after glutaraldehyde (head-head interaction within the dimer) [3]: 74%
Substance: Labeled bovine β-cardiac heavy meromyosin (HMM) carrying EDANS- and dabcyl-labeled regulatory light chain (from UniProt P85100 1-199; Q3SZE5 1-166) (complex)
